Measurements published in paper PMC11374535.

Target: SlGrx9-nLUC
Test: luciferase complementation assay (LCA) in N. benthamiana leaves, quantified with ImageJ
Details: parent: est. 6.1; read off a plot

| Substance | response |
| --- | --- |
| cLUC-SlTrxh (from UniProt Q9LKW0) C54S | 6 |
| cLUC-SlTrxh (from UniProt Q9LKW0) C54W | 15 |
